# Measured values taken from publication PMC9045395, “Assembly and Functional Role of PACE Transporter PA2880 from Pseudomonas aeruginosa” (Microbiology Spectrum, 2022).
# Experiments:
# PA2880 = target: T1, PA2880 (Pseudomonas aeruginosa, UniProt Q9HZW7); assay: native mass spectrometry (LILBID-MS); conditions: 200 mM ammonium acetate, 0.02% DDM; binding increases dimer population; proton-coupled transport substrate
# T1 construct: full length, C-terminal TEV site, eGFP (A206K) and Strep-tag; also tested without eGFP in native MS; expressed in Pseudomonas stutzeri; purified in DDM; dimer
# [1] = target: the molecule itself; assay: native MS; LILBID-MS; protein in 200 mM ammonium acetate with 0.02% (wt/vol) DDM, pH 8; monomer to dimer; some samples with chlorhexidine up to a substrate/protein molar ratio of 8 (more dimer)
# [2] = target: the molecule itself; assay: native MS; LILBID-MS; protein in 200 mM ammonium acetate with 0.02% (wt/vol) DDM, pH series from 5 to 9; monomer to dimer; dimer ratio from deconvoluted zero-charge spectra
# native MS = target: the molecule itself; assay: native MS
molecule,measurement,setting,value
N=C(NCCCCCCNC(=N)NC(=N)Nc1ccc(Cl)cc1)NC(=N)Nc1ccc(Cl)cc1 [chlorhexidine],native mass spectrometry (LILBID-MS),PA2880,The LILIBID-MS results showed that chlorhexidine was bound to PA2880
"PA2880 fused with enhanced green fluorescent protein (PA2880-eGFP), wild type (natural protein, also called wt; wild-type PA2880 with fused eGFP; source: Pseudomonas stutzeri (pL2020-PA2880-eGFP), purified (Strep XT column, SEC, in DDM); not shown: eGFP (A206K variant), C-terminal, kept) MTIQPDFNDEPGAFAMTHTHTALDKTLKERIFHALAFEGLAVLLTAPVLSLVMNKPLAHMGALTLMFSTVAMLWNMLFNSLFDRAQRRMGFQRTLQVRVLHAMLFELGLIVVLVPLAAWWLSIGLVEAFLLDMGLILFFLPYTMAFNWSYDVLRARLVESRQAKAAGCDAG",stoichiometry N,[1],2
"PA2880 E38Q variant (natural protein, Pseudomonas aeruginosa strain PAO1, UniProt Q9HZW7 1-171, looked up, PACE family transporter PA2880 of Pseudomonas aeruginosa strain PAO1 with E38Q; source: purified; not shown: eGFP (A206K variant), C-terminal, kept) MTIQPDFNDEPGAFAMTHTHTALDKTLKERIFHALAFQGLAVLLTAPVLSLVMNKPLAHMGALTLMFSTVAMLWNMLFNSLFDRAQRRMGFQRTLQVRVLHAMLFELGLIVVLVPLAAWWLSIGLVEAFLLDMGLILFFLPYTMAFNWSYDVLRARLVESRQAKAAGCDAG",stoichiometry N,[2],2
"wild-type PA2880 without fused eGFP (natural protein, also called PA2880 without eGFP) MTIQPDFNDEPGAFAMTHTHTALDKTLKERIFHALAFEGLAVLLTAPVLSLVMNKPLAHMGALTLMFSTVAMLWNMLFNSLFDRAQRRMGFQRTLQVRVLHAMLFELGLIVVLVPLAAWWLSIGLVEAFLLDMGLILFFLPYTMAFNWSYDVLRARLVESRQAKAAGCDAG",stoichiometry N,native MS,2
